Legend:
[1] = target: G2-Rituximab (galactosylated afucosylated glycoform of rituximab) (human); test: SPR, 1:1 Langmuir global kinetic fit, 1024 to 32 nM in 2-fold steps
[2] = target: G2F-Rituximab (galactosylated fucosylated glycoform of rituximab) (human); test: SPR (Biacore T200), 1:1 Langmuir fit
[3] = target: G2-Rituximab (galactosylated afucosylated glycoform of rituximab) (human); test: SPR (Biacore T200), 1:1 Langmuir fit
[4] = target: G2-Rituximab (galactosylated afucosylated glycoform of rituximab) (human); test: flow cytometry of yeast displaying C11, stained with IgG1 G2 (Alexa647) and IgG1 G2F (FITC)
[5] = target: G2-Rituximab (galactosylated afucosylated glycoform of rituximab) (human); test: SPR; drawn table, KD (G2)

Row | Binder | Kd [1] [nM] | Kd [2] [nM] | Kd [3] [nM] | number printed in the lower right quadrant (IgG1 G2 Alexa647 positive, IgG1 G2F FITC negative) [4] | Kd [5] [nM]
1 | D3 (VHH, not shown: small tags and cut ends) VHH: QVQLQESGGGLVQAGGSLRLSCAASGNISADRYMGWYRQAPGKEREFVAAIGYGGTTYYADSVKGRFTISRDNAKNTVYLQMNSLKPEDTAVYYCAVVDGAHSRHRYWGQGTQVTVSS | 353 | 1900 | 323 | – | –
2 | C11 (VHH, not shown: small tags and cut ends) VHH: QVQLQESGGGLVQAGGSLRLSCAASGYISRYHTMGWYRQAPGKEREFVAGITWGGSTYYADSVKGRFTISRDNAKNTVYLQMNSLKPEDTAVYYCAVDGGTYADPYHYYWGQGTQVTVSS | – | – | 22800 | 4 | –
3 | E4 (VHH, not shown: small tags and cut ends) VHH: QVQLQESGGGLVQAGGSLRLSCAASPYISRYHTMGWYRQAPGKEREFVAAITWGGSTYYADSVKGRFTISRDNAKNTVYLQMNSLKPEDTAVYYCAVDGGTYADPYHYYWGQGTQVTVSS | – | – | – | – | 2480
4 | E2 (VHH, not shown: small tags and cut ends) VHH: QVQLQESGGGLVQAGGSLRLSCAASSYISRYHTMGWYRQAPGKERSFVAGITWGGLTYYADSVKGRFTVSRDNAKNTVYLQMNSLKPEDTAVYYCAVDGGTRADPYHYYWGQGTQVTVSS | – | – | – | – | 4740

Reference: patent publication US20240150494A1
